# Assay results: patent US20060228349A1 (published 2006)
# T1: biotin-Aβ1-20 (biotin (position not given))
# T1 peptide: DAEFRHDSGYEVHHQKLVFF
# T2: Aβ1-20 peptide
# T2 peptide: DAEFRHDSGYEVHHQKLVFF
# Legend:
# [1] = biological target: T3, Biotinylated ADDL preparations (bADDLs) (N-terminal biotin); test: BIACORE, bADDL as antigen; column IgG1#1
# T3 construct: Oligomer, number of copies not fixed; also called biotinylated ADDL antigen; high molecular weight 10% bADDL
# [2] = biological target: T3, Biotinylated ADDL preparations (bADDLs); test: BIACORE, bADDL as antigen; column IgG1#2
# [3] = biological target: T1, biotin-Aβ1-20; test: BIACORE, biotin-Aβ1-20 as antigen; column IgG1#1
# [4] = biological target: T1, biotin-Aβ1-20; test: BIACORE, biotin-Aβ1-20 as antigen; column IgG1#2
# [5] = biological target: T3, Biotinylated ADDL preparations (bADDLs); test: BIACORE, bADDL as antigen; column Fab
# [6] = biological target: T1, biotin-Aβ1-20; test: BIACORE, biotin-Aβ1-20 as antigen; column Fab
# [7] = biological target: T4, Aβ-derived diffusible ligands (synthetic ADDLs), soluble oligomers of amyloid β1-42; test: immunofluorescence of ADDLs bound to primary hippocampal neurons
# T4 construct: Oligomeric preparation of synthetic Aβ1-42 in DMSO/F12 (monomer, trimer, tetramer, 12-24mer on SDS-PAGE); number of copies not fixed; also called soluble Aβ oligomers
# [8] = biological target: T2, Aβ1-20 peptide; test: peptide ELISA
Binder,Kd [1] [pM],Kd [2] [pM],Kd [3] [pM],Kd [4] [pM],Kd [5] [pM],Kd [6] [pM],further results
"20C2-2A, affinity matured humanized 20C2, IgG1 humanized A version (antibody, V domains shown, also called SJ-p1-18) VH: QVTLKESGPALVKPTQTLTLTCTFSGFSLSTSGMGVGWIRQPPGKALEWLAHIWWDDDKSYNPSLKSRLTISKDTSKNQVVLTMTNMDPVDTATYYCARRQLGLRSIDAMDYWGQGTTVTVSS VL: DVVMTQSPLSLPVTPGEPASISCRSSQSILHSNGNTYLEWYLQKPGQSPQLLIYKVSNRFSGVPDRFSGSGSGTDFTLKISRVEAEDVGVYYCFQATRVPLTFGQGTKLEIKR",15,0.3,686,2000,–,–,–
"20C2-5A, affinity matured humanized 20C2, IgG1 humanized A version (antibody, V domains shown, also called SJ-p2-1F) VH: QVTLKESGPALVKPTQTLTLTCTFSGFSLSTSGMGVGWIRQPPGKALEWLAHIWWDDDKSYNPSLKSRLTISKDTSKNQVVLTMTNMDPVDTATYYCARRQLGLRSIDAMDYWGQGTTVTVSS VL: DVVMTQSPLSLPVTPGEPASISCRSSQSILHSNGNTYLEWYLQKPGQSPQLLIYKVSNRFSGVPDRFSGSGSGTDFTLKISRVEAEDVGVYYCFQSSFVPLTFGQGTKLEIKR",317,68,912,1500,–,–,–
"20C2-6A, affinity matured humanized 20C2, IgG1 humanized A version (antibody, V domains shown, also called 4P1-22) VH: QVTLKESGPALVKPTQTLTLTCTFSGFSLSTSGMGVGWIRQPPGKALEWLAHIWWDDDKSYNPSLKSRLTISKDTSKNQVVLTMTNMDPVDTATYYCARRQLGLRSIDAMDYWGQGTTVTVSS VL: DVVMTQSPLSLPVTPGEPASISCRSSQSILHSNGNTYLEWYLQKPGQSPQLLIYKVSNRFSGVPDRFSGSGSGTDFTLKISRVEAEDVGVYYCFQSSRVPLTFGQGTKLEIKR",4.3,24,544,714,–,–,–
"20C2-9A, affinity matured humanized 20C2, IgG1 humanized A version (antibody, V domains shown, also called SJ-p2-51) VH: QVTLKESGPALVKPTQTLTLTCTFSGFSLSTSGMGVGWIRQPPGKALEWLAHIWWDDDKSYNPSLKSRLTISKDTSKNQVVLTMTNMDPVDTATYYCARRQLGLRSIDAMDYWGQGTTVTVSS VL: DVVMTQSPLSLPVTPGEPASISCRSSQSILHSNGNTYLEWYLQKPGQSPQLLIYKVSNRFSGVPDRFSGSGSGTDFTLKISRVEAEDVGVYYCVQTSLVPLTFGQGTKLEIKR",–,2,241,420,–,–,–
"20C2-1A Fab fragment (clone SJ-p2-60) (Fab, V domains shown) VH: QVTLKESGPALVKPTQTLTLTCTFSGFSLSTSGMGVGWIRQPPGKALEWLAHIWWDDDKSYNPSLKSRLTISKDTSKNQVVLTMTNMDPVDTATYYCARRQLGLRSIDAMDYWGQGTTVTVSS VL: DVVMTQSPLSLPVTPGEPASISCRSSQSILHSNGNTYLEWYLQKPGQSPQLLIYKVSNRFSGVPDRFSGSGSGTDFTLKISRVEAEDVGVYYCFQASRVPLTFGQGTKLEIKR",–,–,–,–,85000,91000,–
"20C2-18A Fab fragment (clone SJ-p1-9M) (Fab, V domains shown) VH: QVTLKESGPALVKPTQTLTLTCTFSGFSLSTSGMGVGWIRQPPGKALEWLAHIWWDDDKSYNPSLKSRLTISKDTSKNQVVLTMTNMDPVDTATYYCARRQLGLRSIDAMDYWGQGTTVTVSS VL: DVVMTQSPLSLPVTPGEPASISCRSSQSILHSNGNTYLEWYLQKPGQSPQLLIYKVSNRFSGVPDRFSGSGSGTDFTLKISRVEAEDVGVYYCMQSSFVPLTFGQGTKLEIKR",–,–,–,–,85000,126000,–
"20C2-12A Fab fragment (clone 4P1-32) (Fab, V domains shown) VH: QVTLKESGPALVKPTQTLTLTCTFSGFSLSTSGMGVGWIRQPPGKALEWLAHIWWDDDKSYNPSLKSRLTISKDTSKNQVVLTMTNMDPVDTATYYCARRQLGLRSIDAMDYWGQGTTVTVSS VL: DVVMTQSPLSLPVTPGEPASISCRSSQSILHSNGNTYLEWYLQKPGQSPQLLIYKVSNRFSGVPDRFSGSGSGTDFTLKISRVEAEDVGVYYCLQSSLVPLTFGQGTKLEIKR",–,–,–,–,238000,617000,–
"20C2-5A Fab fragment (clone SJ-p2-1F) (Fab, V domains shown) VH: QVTLKESGPALVKPTQTLTLTCTFSGFSLSTSGMGVGWIRQPPGKALEWLAHIWWDDDKSYNPSLKSRLTISKDTSKNQVVLTMTNMDPVDTATYYCARRQLGLRSIDAMDYWGQGTTVTVSS VL: DVVMTQSPLSLPVTPGEPASISCRSSQSILHSNGNTYLEWYLQKPGQSPQLLIYKVSNRFSGVPDRFSGSGSGTDFTLKISRVEAEDVGVYYCFQSSFVPLTFGQGTKLEIKR",–,–,–,–,41000,41000,–
"20C2-2A Fab fragment (clone SJ-p1-18) (Fab, V domains shown) VH: QVTLKESGPALVKPTQTLTLTCTFSGFSLSTSGMGVGWIRQPPGKALEWLAHIWWDDDKSYNPSLKSRLTISKDTSKNQVVLTMTNMDPVDTATYYCARRQLGLRSIDAMDYWGQGTTVTVSS VL: DVVMTQSPLSLPVTPGEPASISCRSSQSILHSNGNTYLEWYLQKPGQSPQLLIYKVSNRFSGVPDRFSGSGSGTDFTLKISRVEAEDVGVYYCFQATRVPLTFGQGTKLEIKR",–,–,–,–,28000,28000,–
"20C2-8B, affinity matured humanized 20C2, IgG1 humanized B version (antibody, V domains shown, also called SJ-p2-39) VH: QVTLKESGPALVKPTQTLTLTCTLSGFSLSTSGMGVGWIRQPPGKALEWLAHIWWDDDKSYNPSLKSRLTISKDTSKNQVVLTMTNMDPVDTATYYCARRQLGLRSIDAMDYWGQGTTVTVSS VL: DVVMTQSPLSLPVTPGEPASISCRSSQSILHSNGNTYLEWYLQKPGQSPQLLIYKVSNRFSGVPDRFSGSGSGTDFTLKISRVEAEDVGVYYCLQTTRVPLTFGQGTKLEIKR",13,0.8,46,64,–,–,–
"20C2-23A, affinity matured humanized 20C2, IgG1 humanized A version (antibody, V domains shown, also called 4P1-40) VH: QVTLKESGPALVKPTQTLTLTCTFSGFSLSTSGMGVGWIRQPPGKALEWLAHIWWDDDKSYNPSLKSRLTISKDTSKNQVVLTMTNMDPVDTATYYCARRQLGLRSIDAMDYWGQGTTVTVSS VL: DVVMTQSPLSLPVTPGEPASISCRSSQSILHSNGNTYLEWYLQKPGQSPQLLIYKVSNRFSGVPDRFSGSGSGTDFTLKISRVEAEDVGVYYCHQSSKVPLTFGQGTKLEIKR",85,66,649,1500,–,–,–
"20C2-8A Fab fragment (clone SJ-p2-39) (Fab, V domains shown) VH: QVTLKESGPALVKPTQTLTLTCTFSGFSLSTSGMGVGWIRQPPGKALEWLAHIWWDDDKSYNPSLKSRLTISKDTSKNQVVLTMTNMDPVDTATYYCARRQLGLRSIDAMDYWGQGTTVTVSS VL: DVVMTQSPLSLPVTPGEPASISCRSSQSILHSNGNTYLEWYLQKPGQSPQLLIYKVSNRFSGVPDRFSGSGSGTDFTLKISRVEAEDVGVYYCLQTTRVPLTFGQGTKLEIKR",–,–,–,–,13000,14000,–
"20C2-13A Fab fragment (clone 4p1-20) (Fab, V domains shown) VH: QVTLKESGPALVKPTQTLTLTCTFSGFSLSTSGMGVGWIRQPPGKALEWLAHIWWDDDKSYNPSLKSRLTISKDTSKNQVVLTMTNMDPVDTATYYCARRQLGLRSIDAMDYWGQGTTVTVSS VL: DVVMTQSPLSLPVTPGEPASISCRSSQSILHSNGNTYLEWYLQKPGQSPQLLIYKVSNRFSGVPDRFSGSGSGTDFTLKISRVEAEDVGVYYCLQTSNVPLTFGQGTKLEIKR",–,–,–,–,567000,94000,–
"20C2-9A Fab fragment (clone SJ-p2-51) (Fab, V domains shown) VH: QVTLKESGPALVKPTQTLTLTCTFSGFSLSTSGMGVGWIRQPPGKALEWLAHIWWDDDKSYNPSLKSRLTISKDTSKNQVVLTMTNMDPVDTATYYCARRQLGLRSIDAMDYWGQGTTVTVSS VL: DVVMTQSPLSLPVTPGEPASISCRSSQSILHSNGNTYLEWYLQKPGQSPQLLIYKVSNRFSGVPDRFSGSGSGTDFTLKISRVEAEDVGVYYCVQTSLVPLTFGQGTKLEIKR",–,–,–,–,40000,36000,–
"20C2-8A, affinity matured humanized 20C2, IgG1 humanized A version (antibody, V domains shown, also called SJ-p2-39) VH: QVTLKESGPALVKPTQTLTLTCTFSGFSLSTSGMGVGWIRQPPGKALEWLAHIWWDDDKSYNPSLKSRLTISKDTSKNQVVLTMTNMDPVDTATYYCARRQLGLRSIDAMDYWGQGTTVTVSS VL: DVVMTQSPLSLPVTPGEPASISCRSSQSILHSNGNTYLEWYLQKPGQSPQLLIYKVSNRFSGVPDRFSGSGSGTDFTLKISRVEAEDVGVYYCLQTTRVPLTFGQGTKLEIKR",3,0.7,140,376,–,–,–
"20C2-7A Fab fragment (clone SJ-p2-27) (Fab, V domains shown) VH: QVTLKESGPALVKPTQTLTLTCTFSGFSLSTSGMGVGWIRQPPGKALEWLAHIWWDDDKSYNPSLKSRLTISKDTSKNQVVLTMTNMDPVDTATYYCARRQLGLRSIDAMDYWGQGTTVTVSS VL: DVVMTQSPLSLPVTPGEPASISCRSSQSILHSNGNTYLEWYLQKPGQSPQLLIYKVSNRFSGVPDRFSGSGSGTDFTLKISRVEAEDVGVYYCLNSTTVPLTFGQGTKLEIKR",–,–,–,–,435000,128000,–
"murine anti-ADDL monoclonal antibody 2H4 (antibody, mouse IgG2a, V domains shown) VH: DVQLVESGGGLVQPGGSRKLSCAASGFTFSSFGMHWVRQAPEKGLEWVAYIRSGSSTIYYADTVKGRFTISRDNPKNTLFLQMTSLRSEDTAMYYCTRGGNYYGSSRFAYWGQGTLVTVSA VL: DIKMTQSPSSMYASLGERVTITCKASQDINSYLSWFQQKPGKSPKTLIYRANRFVDGVPSRFSGSGSGQDYSLTISSLEYEDMGIYFCLQYDEFPLTFGAGTKLVLK",–,–,–,–,–,–,binding result [7]: binds
"murine anti-ADDL monoclonal antibody 1F6 (antibody, mouse IgG1, V domains shown) VH: DVQLVESGGGLVQPGGSRKLSCAASGFTFSSFGMHWVRQAPEKGLEWVAYISSVSSTIYYADTVKGRFTISRDNPKNTLFLQMTSLRSEDTAMYYCARSGYGSSYGYGMDYWGQGTLVTVSS VL: DVLMTQTPLSLPVSLGDQASISCRSSQSIVHSNGNTYLEWYLQKPGQSPKLLIYKVSNRFSGVPDRFSGSGSGTDFTLKISRVEAEDLGVYYCFQGSHVPLTFGAGTKLELK",–,–,–,–,–,–,binding result [8]: binds
